Assay results taken from patent US20260009052, “CAS12 PROTEINS AND USES THEREOF” (GUANGZHOU REFORGENE MEDICINE CO., LTD., published 2026).

Legend:
C12-279 G989R = target: T1, C12-279 G989R (synthetic construct, G989R); assay: cell_activity; PAM TTG; +/-0.2
T1 chain: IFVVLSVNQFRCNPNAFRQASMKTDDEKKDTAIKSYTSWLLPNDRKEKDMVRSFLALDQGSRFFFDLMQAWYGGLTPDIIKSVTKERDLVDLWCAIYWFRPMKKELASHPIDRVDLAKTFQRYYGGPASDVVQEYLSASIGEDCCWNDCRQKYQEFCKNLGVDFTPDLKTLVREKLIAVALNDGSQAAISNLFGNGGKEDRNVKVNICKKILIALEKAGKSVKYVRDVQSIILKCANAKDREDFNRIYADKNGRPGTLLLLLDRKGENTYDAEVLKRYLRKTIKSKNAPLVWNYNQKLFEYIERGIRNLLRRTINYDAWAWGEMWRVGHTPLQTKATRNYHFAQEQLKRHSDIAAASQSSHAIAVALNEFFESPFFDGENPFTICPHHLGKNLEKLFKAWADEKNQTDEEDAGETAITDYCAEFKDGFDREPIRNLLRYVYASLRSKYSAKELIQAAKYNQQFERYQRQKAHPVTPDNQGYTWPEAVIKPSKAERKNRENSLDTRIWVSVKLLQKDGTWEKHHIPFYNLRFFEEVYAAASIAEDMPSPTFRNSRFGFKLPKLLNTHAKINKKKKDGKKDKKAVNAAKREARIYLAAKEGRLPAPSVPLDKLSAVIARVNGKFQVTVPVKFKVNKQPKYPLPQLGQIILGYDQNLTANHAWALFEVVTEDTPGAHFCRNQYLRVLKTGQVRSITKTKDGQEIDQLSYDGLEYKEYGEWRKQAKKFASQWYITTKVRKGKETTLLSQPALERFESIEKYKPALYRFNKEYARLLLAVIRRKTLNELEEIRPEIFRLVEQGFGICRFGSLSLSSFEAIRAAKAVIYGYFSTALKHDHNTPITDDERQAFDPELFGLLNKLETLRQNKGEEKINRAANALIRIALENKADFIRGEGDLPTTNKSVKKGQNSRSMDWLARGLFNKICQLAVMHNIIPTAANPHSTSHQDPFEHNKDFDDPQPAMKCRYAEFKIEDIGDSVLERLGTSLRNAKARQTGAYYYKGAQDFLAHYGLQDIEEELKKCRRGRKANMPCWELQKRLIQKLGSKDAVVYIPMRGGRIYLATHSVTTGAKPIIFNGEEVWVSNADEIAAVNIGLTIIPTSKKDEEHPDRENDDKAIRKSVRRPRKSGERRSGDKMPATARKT
Description: (§1) Transfection: transfection was performed 12-14 h after plating. 1.5 μL PEI (Yeasen Biotechnology, 40815ES03, Polyethylenimine Linear (PEI) MW25000) and 500 ng mutation clone plasmid were added to 100 μL Opti-MEM per well of the 24-well plate, mixed, and added to the NAAN cell line for cell transfection after placing at room temperature for 20 min. After overnight transfection, a fresh culture medium was replaced, and the culture was continued for 72 h, followed by flow cytometry. Editing efficiencies of different mutant clones were characterized by the proportion of GFP-positive cells.
(§2) Editing efficiency of some selected mutants was tested in Reporter3 cell line using the same manner as described for the NAAN reporter system, except that the cell line was changed from NAAN cell line to Reporter3 cell line.

C12-279 D352R = target: T2, C12-279 D352R (synthetic construct, D352R); assay: cell_activity; PAM TTG; +/-0.22
T2 chain: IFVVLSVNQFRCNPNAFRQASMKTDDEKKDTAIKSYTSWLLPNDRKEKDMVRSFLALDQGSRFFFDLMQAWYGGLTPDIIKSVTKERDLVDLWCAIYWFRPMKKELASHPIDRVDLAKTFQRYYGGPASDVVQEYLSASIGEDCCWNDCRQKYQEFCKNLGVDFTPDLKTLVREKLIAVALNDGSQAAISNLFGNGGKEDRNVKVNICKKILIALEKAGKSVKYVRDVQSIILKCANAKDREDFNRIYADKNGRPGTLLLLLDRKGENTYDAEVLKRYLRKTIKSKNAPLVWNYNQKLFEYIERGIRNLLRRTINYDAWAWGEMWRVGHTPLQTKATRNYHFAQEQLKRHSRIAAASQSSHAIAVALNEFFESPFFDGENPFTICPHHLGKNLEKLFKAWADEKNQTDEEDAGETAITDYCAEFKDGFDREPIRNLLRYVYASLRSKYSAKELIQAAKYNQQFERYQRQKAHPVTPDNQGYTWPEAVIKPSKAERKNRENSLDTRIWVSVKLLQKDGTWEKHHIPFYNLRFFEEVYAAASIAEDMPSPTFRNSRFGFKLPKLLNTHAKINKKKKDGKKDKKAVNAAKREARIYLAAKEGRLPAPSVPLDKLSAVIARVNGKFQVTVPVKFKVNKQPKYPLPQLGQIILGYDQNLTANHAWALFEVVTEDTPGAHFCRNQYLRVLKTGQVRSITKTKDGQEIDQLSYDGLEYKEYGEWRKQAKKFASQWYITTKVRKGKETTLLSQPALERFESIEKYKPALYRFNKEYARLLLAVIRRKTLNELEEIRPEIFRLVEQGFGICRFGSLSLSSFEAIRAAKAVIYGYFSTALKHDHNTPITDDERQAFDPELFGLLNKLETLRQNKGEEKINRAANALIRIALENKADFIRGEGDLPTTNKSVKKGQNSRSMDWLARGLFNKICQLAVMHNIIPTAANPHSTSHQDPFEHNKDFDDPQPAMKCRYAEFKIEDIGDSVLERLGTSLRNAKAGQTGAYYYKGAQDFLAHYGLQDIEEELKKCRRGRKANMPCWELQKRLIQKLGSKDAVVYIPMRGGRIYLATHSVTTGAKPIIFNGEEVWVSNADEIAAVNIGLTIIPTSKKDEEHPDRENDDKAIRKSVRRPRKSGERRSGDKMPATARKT
Description: as §1, §2

B1: C12-279 Reporter3 sgRNA ; Reporter3 target (ssRNA ; dsDNA)
RNA: GUAAUGCGUCUCCCAUUGACGCCUCACCUCGCGACGCAAUGAUG
DNA 1: CTCACCTCGCGACGCAATGATG
DNA 2: CATCATTGCGTCGCGAGGTGAG
For B1, the binding signal (C12-279 G989R) was 1.27 fold of C12-279 and the binding signal (C12-279 D352R) was 1.18 fold of C12-279.
